Measured values reported in patent publication CN116813758A (INST MICROBIOLOGY CAS, dated 2023).

Biological target: SARS-CoV-2原始毒株的RBD蛋白 (SARS-CoV-2 RBD-his) (SARS-CoV-2原始毒株, UniProt P0DTC2 319-541)

B1: 单链纳米抗体S43 (S43-his蛋白) (VHH)
VHH: QVQLQESGGGLVQPGGSLRLTCAPSGFTLDYYAIGWFRQAPGKEREGVSCISSNNSTYYADSVKGRFTISRDNAKNTVYLQMNSLKPEDTAVYYCAAEPDYSGVYYYTCGWTDFGSWGQGTQVTVSS
With B1 as the binder, how does the Kd read?
The Kd was 120 pM.
